PMC12102759

B1: MXI1 peptide 6-21 (Max-interacting protein 1), 16-mer library wild type / SIN3A PAH2 (SIN3A PAH domain, residues 295-383) (parent)
chain 1: MINVQRLLEAAEFLER
chain 2: SLQNNQPVEFNHAINYVNKIKNRFQGQPDIYKAFLEILHTYQKEQRNAKEAGGNYTPALTEQEVYAQVARLFKNQEDLLSEFGQFLPDA
B2: RNF115 peptide 67-82 (E3 ubiquitin-protein ligase RNF115), 16-mer library wild type / MDM2 SWIB (MDM2 SWIB/MDM2 domain, residues 17-125) (parent)
chain 1: TTTHFAELWGHLDHTM
chain 2: SQIPASEQETLVRPKPLLLKLLKSVGAQKDTYTMKEVLFYLGQYIMTKRLYDEKQQHIVYCSNDLLGDLFGVPSFSVKEHRKIYTMIYRNLVVVNQQESSDSGTSVSEN
B3: PIP5K1C peptide 640-655 (Phosphatidylinositol 4-phosphate 5-kinase type-1 gamma), 16-mer library wild type / TLN1 PTB (TLN1 Phosphotyrosine-binding (PTB) domain, residues 309-401) (parent)
chain 1: FPTDERSWVYSPLHYS
chain 2: GVSFFLVKEKMKGKNKLVPRLLGITKECVMRVDEKTKEVIQEWNLTNIKRWAASPKSFTLDFGDYQDGYYSVQTTEGEQIAQLIAGYIDIILK
B4: PEX5 peptide 110-125 (Peroxisomal targeting signal 1 receptor), 16-mer library wild type / PEX14 Pex14 (PEX14 PEX14, residues 16-84) (parent)
chain 1: ADLALSENWAQEFLAA
chain 2: TPGSENVLPREPLIATAVKFLQNSRVRQSPLATRRAFLKKKGLTDEEIDMAFQQSGTAADEPSSLGPAT

Variants of: B1
Test: proteomic peptide phage display deep mutational scan (ProP-PD DMS): M13 P8 16-mer library selected against immobilised GST-tagged bait for four days (rounds), NGS of the eluted pools per day and pseudo-replica
Conditions: with SIN3A PAH2 (SIN3A PAH domain, residues 295-383); bait immobilised on MaxiSorp plates (10 µg), library pre-cleared on GST, 2 h binding at 4 °C, five washes; one round per day, days 1-4; value from days 2 and 3; keep out of graded; scale: average fractional NGS count over selection days 2 and 3

| Variant | screen value |
| --- | --- |
| chain 1 A11T | 9.14e-05 |
| chain 1 A11V | 2.84e-05 |
| chain 1 A11S | 8.92e-05 |
| chain 1 I2K | 0 |
| chain 1 I2G | 6.22e-05 |
| chain 1 A10Q | 0 |
| chain 1 A10R | 0 |
| chain 1 A10I | 4.73e-05 |
| chain 1 A10H | 2.36e-05 |
| chain 1 A10M | 1.91e-05 |
| chain 1 L8A | 2.84e-05 |
| chain 1 L8W | 6.64e-05 |
| chain 1 L8N | 7.15e-05 |
| chain 1 L8F | 7.63e-05 |
| chain 1 L8R | 4.34e-05 |
| chain 1 F13I | 1.91e-05 |
| chain 1 F13P | 4.79e-05 |

The remaining lines, values ahead:

| screen value | Variant |
| --- | --- |
| 6.78e-05 | chain 1 Q5W |
| 3.48e-05 | chain 1 Q5P |
| 0 | chain 1 Q5D |
| 4.48e-05 | chain 1 N3R |
| 0 | chain 1 N3A |
| 5.31e-05 | chain 1 N3Q |
| 0 | chain 1 M1T |
| 8.47e-05 | chain 1 M1H |
| 3.46e-05 | chain 1 M1L |
| 6.67e-05 | chain 1 M1A |
| 5.17e-05 | chain 1 L14T |
| 0 | chain 1 L14A |
| 7.31e-05 | chain 1 L14Q |
| 3.78e-05 | chain 1 L14F |
| 5.76e-05 | chain 1 R6D |
| 6.6e-05 | chain 1 R6M |
| 4.27e-05 | chain 1 R6F |
| 0 | chain 1 R6T |

Variants of: B2
Test: as above
Conditions: with MDM2 SWIB (MDM2 SWIB/MDM2 domain, residues 17-125); bait immobilised on MaxiSorp plates (10 µg), library pre-cleared on GST, 2 h binding at 4 °C, five washes; one round per day, days 1-4; value from days 2 and 3; keep out of graded; scale: average fractional NGS count over selection days 2 and 3

| Variant | screen value |
| --- | --- |
| chain 1 H4W | 2.47e-05 |
| chain 1 H4R | 1.9e-05 |
| chain 1 E7S | 0 |
| chain 1 E7L | 7.08e-05 |
| chain 1 E7Y | 0 |
| chain 1 E7W | 5.37e-05 |
| chain 1 E7G | 0 |
| chain 1 A6P | 3.8e-05 |
| chain 1 A6R | 0 |
| chain 1 A6T | 0.00014 |
| chain 1 A6Y | 0.000156 |
| chain 1 A6F | 0.000296 |
| chain 1 A6N | 0.000134 |
| chain 1 L8A | 0 |
| chain 1 L8E | 4.72e-05 |
| chain 1 L8Q | 0 |
| chain 1 L8N | 0 |
| chain 1 L8P | 1.29e-05 |
| chain 1 L8S | 0 |

| Variant | screen value |
| --- | --- |
| chain 1 H14K | 0.000119 |
| chain 1 H14D | 2.82e-05 |
| chain 1 L12K | 0 |
| chain 1 L12S | 0 |
| chain 1 L12T | 0 |
| chain 1 L12F | 0 |
| chain 1 L12V | 1.9e-05 |
| chain 1 D13K | 0 |
| chain 1 F5N | 0 |
| chain 1 F5A | 0 |
| chain 1 F5K | 0 |
| chain 1 F5R | 0 |
| chain 1 F5D | 0 |
| chain 1 G10E | 8.15e-05 |
| chain 1 G10V | 7.22e-05 |
| chain 1 G10F | 3.49e-05 |
| chain 1 G10K | 0 |
| chain 1 G10R | 2.89e-05 |
| chain 1 G10H | 5.57e-05 |

The remaining lines, values ahead:

| screen value | Variant |
| --- | --- |
| 6.02e-05 | chain 1 T3N |
| 2.98e-05 | chain 1 T2W |
| 7.17e-05 | chain 1 T2N |
| 4.31e-05 | chain 1 T2F |
| 4.26e-05 | chain 1 M16H |
| 4.72e-05 | chain 1 M16G |
| 0.000115 | chain 1 M16S |
| 0.000117 | chain 1 M16R |
| 0 | chain 1 M16K |
| 0.000116 | chain 1 W9G |
| 4.89e-05 | chain 1 W9K |
| 7.05e-05 | chain 1 W9T |
| 0 | chain 1 W9A |
| 0 | chain 1 W9D |
| 3.98e-05 | chain 1 W9P |
| 0 | chain 1 W9H |
| 0 | chain 1 W9Y |
| 0 | chain 1 W9Q |
| 0 | chain 1 W9N |
| 0 | chain 1 W9L |
| 4.41e-05 | chain 1 T15E |
| 4.79e-05 | chain 1 T15N |
| 2.45e-05 | chain 1 T15K |
| 7.64e-05 | chain 1 T15P |
| 5.55e-05 | chain 1 T15R |

Variants of: B3
Test: as above
Conditions: with TLN1 PTB (TLN1 Phosphotyrosine-binding (PTB) domain, residues 309-401); bait immobilised on MaxiSorp plates (10 µg), library pre-cleared on GST, 2 h binding at 4 °C, five washes; one round per day, days 1-4; value from days 2 and 3; keep out of graded; scale: average fractional NGS count over selection days 2 and 3

| Variant | screen value |
| --- | --- |
| chain 1 D4I | 7.24e-05 |
| chain 1 D4N | 3.05e-05 |
| chain 1 D4E | 2.74e-05 |
| chain 1 D4G | 0.000716 |
| chain 1 D4Q | 0.000121 |
| chain 1 D4H | 0.000241 |
| chain 1 D4M | 2.74e-05 |
| chain 1 D4L | 0.000325 |
| chain 1 E5Y | 0.000182 |
| chain 1 E5S | 0.000272 |
| chain 1 E5K | 0.000102 |
| chain 1 E5N | 0.00102 |
| chain 1 H14Q | 0.000124 |
| chain 1 H14D | 0.000394 |
| chain 1 H14Y | 0.000112 |
| chain 1 H14N | 3.05e-05 |
| chain 1 H14G | 0.00022 |
| chain 1 H14M | 0.00119 |
| chain 1 H14L | 9.59e-05 |

Further lines, results first:

| screen value | Variant |
| --- | --- |
| 0.000113 | chain 1 V9A |
| 0.000185 | chain 1 V9G |
| 0.000288 | chain 1 V9Y |
| 0.000257 | chain 1 V9H |
| 0.000216 | chain 1 Y10N |
| 0.000521 | chain 1 Y10D |
| 0.00032 | chain 1 Y10M |
| 0.00117 | chain 1 Y10T |
| 3.45e-05 | chain 1 S11M |
| 7.18e-05 | chain 1 S11A |
| 0.000656 | chain 1 Y15A |
| 0.000141 | chain 1 Y15M |
| 0.000147 | chain 1 Y15Q |
| 3.79e-05 | chain 1 Y15L |
| 0.00057 | chain 1 Y15G |
| 9.3e-05 | chain 1 P12V |
| 5.51e-05 | chain 1 P12K |
| 7.3e-05 | chain 1 P12M |
| 5.76e-05 | chain 1 S16Q |
| 0.000199 | chain 1 S16P |
| 3.45e-05 | chain 1 S16W |
| 0.000308 | chain 1 S16E |
| 0.000132 | chain 1 S16R |
| 0.000111 | chain 1 P2W |
| 4.1e-05 | chain 1 P2A |

| screen value | Variant |
| --- | --- |
| 0.000281 | chain 1 P2S |
| 0.000569 | chain 1 P2V |
| 5.46e-05 | chain 1 P2R |
| 0.000182 | chain 1 P2E |
| 0.000984 | chain 1 R6V |
| 0.00302 | chain 1 R6S |
| 0.00014 | chain 1 R6M |
| 9.86e-05 | chain 1 R6Q |
| 5.92e-05 | chain 1 R6G |
| 0.00019 | chain 1 L13V |
| 5.12e-05 | chain 1 L13Q |
| 0.000183 | chain 1 L13S |
| 0 | chain 1 L13D |
| 4.75e-05 | chain 1 L13N |
| 8.2e-05 | chain 1 T3N |
| 2.4e-05 | chain 1 T3M |
| 0.000107 | chain 1 T3R |
| 9.69e-05 | chain 1 T3G |
| 0.000733 | chain 1 T3Y |
| 0.00018 | chain 1 T3S |
| 0.000136 | chain 1 S7Y |
| 0 | chain 1 S7P |
| 0.00143 | chain 1 S7I |
| 6.81e-05 | chain 1 S7E |

Variants of: B4
Test: as above
Conditions: with PEX14 Pex14 (PEX14 PEX14, residues 16-84); bait immobilised on MaxiSorp plates (10 µg), library pre-cleared on GST, 2 h binding at 4 °C, five washes; one round per day, days 1-4; value from days 2 and 3; scale: average fractional NGS count over selection days 2 and 3

| screen value | Variant |
| --- | --- |
| 0 | chain 1 A1H |
